Drawing on PMC13044992, this text covers stoichiometry N for two substances.

Assay [1] has as its target S100i1 from Danio rerio (wild type) (Danio rerio) (UniProt Q6XG62). In words: crystal structure; sitting-drop vapor diffusion at 291 K, 10 mg/mL protein; apo S100i1 (0.2 M Li sulfate, Tris-HCl pH 8.5, 25% PEG 4000), Na+-S100i1 (0.2 M Na acetate, Tris-HCl pH 9.5, 35% PEG 4000), Mg2+-S100i2 (0.2 M MgCl2, Tris-HCl pH 8.5, 30% PEG 4000).
For assay [2] the target is unchanged. In words: SEC; 24 mL Superdex 75 Increase 10/300 GL, 20 mM Tris-HCl pH 7.5, 100 mM NaCl; self-association (homodimer). A general note: SEC sorts molecules by how far they enter the pores of the column.
Assay [3] deals with S100i2 from Danio rerio (wild type) (Danio rerio) (UniProt A3FKT8). Briefly: crystal structure; sitting-drop vapor diffusion at 291 K, 10 mg/mL protein; apo S100i1 (0.2 M Li sulfate, Tris-HCl pH 8.5, 25% PEG 4000), Na+-S100i1 (0.2 M Na acetate, Tris-HCl pH 9.5, 35% PEG 4000), Mg2+-S100i2 (0.2 M MgCl2, Tris-HCl pH 8.5, 30% PEG 4000).
Assay [4] has the same target. Briefly: SEC; 24 mL Superdex 75 Increase 10/300 GL, 20 mM Tris-HCl pH 7.5, 100 mM NaCl; self-association (homodimer).

What is called stoichiometry N is the number of molecules, sites or subunits per partner or assembly. In the case of “S100i1 from Danio rerio (wild type) (from UniProt Q6XG62 1-95) (natural protein)”, the stoichiometry N in assay [1] and in assay [2] was 2 in each case.
“S100i2 from Danio rerio (wild type) (from UniProt A3FKT8 1-97) (natural protein)”: the stoichiometry N in assay [3] and in assay [4] was 2 each time.
